Measurements from patent US6165749.

Test system: AccIII restriction endonuclease (L2V) L2V
Experiment: cleavage_in_vitro
Settings: Takara data sheet conditions; about 16 times the level of the Acc bacterium

“AccIII assay substrate DNA (data sheet conditions)” was tested, and the activity (units per g wet cells) was 8000.
